Measurements published in US20160272707A1 (COMPUGEN, published 2016).

B1: 50-01.B01 (antibody, V domains shown)
VH: QVQLQESGPGLMKPSQTLSLTCTVSGDSITRGSSYWSWIRQSDGKGLEWIGHIYSGGDTDYNPALKSRVTISADASRGQFLLRLTSMTAADTAVYYCARDRGAYGMDVWGQGTTVTVSS
VL: QPVLTQSSSASASLGASVKLTCTLSSEHDRYAIAWLQQKPEKGPRYLMKVNSDGSHRKGDGIPDRFSGSSSGAERYLTISRLQSEDEADYYCQTWGIGIRVFGGGTQLTVLG
notes: also called 50-01.801
B2: 53-01.B11 (antibody, V domains shown)
VH: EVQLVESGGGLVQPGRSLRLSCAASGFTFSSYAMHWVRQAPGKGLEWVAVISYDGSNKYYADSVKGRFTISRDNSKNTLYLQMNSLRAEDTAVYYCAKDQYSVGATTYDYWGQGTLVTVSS
VL: QPVLTQSSSASASLGASVKLTCSLSSGHSSYAIAWHQQQPEKGPRYLMKLNSDGSHSKGDGIPDRFSGSSSGAERYLTISSLQSEDEADYYCQTWGSGIQVFGGGTKLTVLG
notes: also called S53-01-B11; S53-01.B11

How the values were obtained:
VSTM5 monomer [1] = target: T1, VSTM5 monomer (UniProt A8MXK1 29-147, limits assumed); experiment: SPR, VSTM5 monomer binding to the IgG (equilibrium binding constant)
T1 construct: also called monomeric VSTM5 antigen; VSTM5 antigen
T1 sequence (looked up): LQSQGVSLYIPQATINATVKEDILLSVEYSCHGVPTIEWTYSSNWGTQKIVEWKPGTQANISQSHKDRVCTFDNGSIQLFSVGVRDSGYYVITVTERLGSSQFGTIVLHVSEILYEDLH

[2] = target: T2, mouse VSTM5 (SEQ ID NO:11) expressed on HEK-293T cells (mouse, UniProt Q9D806 28-199); experiment: FACS, IgG1 at 22 nM on 293-muVSTM5 cells; grade from ratio to 293-MT control cells (50-400)
T2 construct: also called mouse VSTM5 untagged
T2 sequence: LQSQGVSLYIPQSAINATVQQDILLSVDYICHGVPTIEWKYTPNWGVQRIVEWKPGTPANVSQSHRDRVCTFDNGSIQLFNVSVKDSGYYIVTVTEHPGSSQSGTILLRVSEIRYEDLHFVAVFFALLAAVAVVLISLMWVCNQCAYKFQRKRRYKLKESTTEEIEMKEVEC

VSTM5 monomer [3] = target: T1, VSTM5 monomer; experiment: SPR, VSTM5 monomer binding to the IgG
[4] = target: T3, human VSTM5-EGFP (SEQ ID NO:133) expressed on HEK-293 cells (human); experiment: FACS, IgG1 at 22 nM on 293-huVSTM5 (VSTM5-EGFP) cells; grade from ratio to 293-MT control cells (50-400)
T3 construct: Full-length human VSTM5 fused at its C-terminus to EGFP; also called VSTM5_GFP

[5] = target: T2, mouse VSTM5 (SEQ ID NO:11) expressed on …; experiment: FACS, IgG1 at 22 nM on 293-muVSTM5 cells; grade from ratio to 293-MT control cells (850-2000)
[6] = target: T4, VSTM5 on human peripheral blood leukocytes (Homo sapiens, UniProt A8MXK1); experiment: FACS, AF647 conjugated antibody on red-cell-lysed human peripheral blood of 3 donors, Fc receptors blocked with human IgG, against Synagis AF647
T4 construct: full-length, cell surface, endogenous; also called endogenous human VSTM5
T4 sequence (membrane protein, looked up): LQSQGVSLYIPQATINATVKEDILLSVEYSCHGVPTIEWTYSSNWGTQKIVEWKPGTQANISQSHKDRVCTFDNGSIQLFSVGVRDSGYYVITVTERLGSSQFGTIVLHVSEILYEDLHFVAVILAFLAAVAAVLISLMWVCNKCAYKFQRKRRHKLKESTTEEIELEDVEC
Experimental: Human peripheral blood was collected from 3 healthy donors. Red blood cells were lysed with RBC Lysis Buffer (eBiosciences Cat#00-4333-57) according to the manufacturer's protocol. Cells were incubated with 400 ug/ml human IgG (Jackson Immunoresearch #009-000-003) for 20 min on ice to block Fc receptors and then stained with cocktails consisting of Synagis® AF647, and anti-VSTM5 antibodies disclosed in Example 12, i.e., anti-VSTM5 AF647 (clone 44-2.E06 or 53-01.B11), anti-CD11b PE (Biolegend Cat#301305), anti-CD45 PerCp Cy5.5 (Biolegend #304207), anti-CD14 FITC (Biolegend cat#352610), or anti-CD41 PE (Biolegend Cat#303705) for 30 min on ice. All AF647 antibodies were conjugated at Compugen using Alexa Fluor® 647 Antibody Labeling Kit (Life Technologies Cat# A-20186) according to the manufacturer's protocol. Cells were washed twice with FACS Buffer (1% BSA, 0.1% Sodium Azide, PBS) and acquired on Intellicyte FACS machine. Data was analyzed by FlowJo and cell subsets defined as below: Monocytes: CD14⁺CD11b⁺, Neutrophils: CD11b⁺CD14^low, Lymphocytes FSC^lowSSC^lo, Eosinophils SSC^hi, platelets: CD45⁻CD41⁺. Staining of anti-VSTM5 antibodies to these cells was compared to staining with Synagis.

[7] = target: T3, human VSTM5-EGFP (SEQ ID NO:133) …; experiment: FACS, IgG1 at 22 nM on 293-huVSTM5 (VSTM5-EGFP) cells; grade from ratio to 293-MT control cells (850-2000)
[8] = target: T2, mouse VSTM5 (SEQ ID NO:11) expressed on …; experiment: FACS titration of the human IgG1 on 293-muVSTM5 cells, panel 'Ab binding vs. mouse VSTM5'; y axis MFI (anti-Human A647)
[9] = target: T5, human VSTM5 (SEQ ID NO:132) expressed on HEK-293T cells (human, UniProt A8MXK1 29-200); experiment: flow cytometry on HEK293T cells expressing untagged human VSTM5; antibody at 1 nM (0.15 ug/ml), PE goat anti-human secondary 1:200
T5 construct: For the western blot, whole cell extracts were used; no signal peptide limits are stated; also called human VSTM5 untagged; HEK293T recombinant cells expressing human VSTM5
T5 sequence: T4 sequence (membrane protein, looked up)
From the text: To verify the cell-surface expression of human VSTM5 in HEK293T recombinant cells (FIG. 8C), cells expressing the protein were stained with monoclonal VSTM5 antibody (S53-01-B11, described in Example 12 and 13 herein) and appropriate Isotype control followed by Goat a human PE conjugated Ab (Cat#
Non expressing cell line (HEK293T_pIRESpuro3) was stained under the same conditions and used for a negative control.

[10] = target: T3, human VSTM5-EGFP (SEQ ID NO:133) …; experiment: FACS titration of the human IgG1 on 293-huVSTM5 cells, 293-MT control cells as open squares; y axis MFI (anti-Human A647)
[11] = target: T6, VSTM5-ECD-Ig H:H (human VSTM5 ECD fused to human IgG1 Fc, SEQ ID NO:130) (human); experiment: FACS of tosyl-activated beads coated with anti-CD3 and 0 to 320 ug/ml VSTM5-ECD-Ig, stained with Alexa 647 conjugated 53-01.B11
T6 construct: also called VSTM5-ECD-Ig fusion protein; VSTM5HH
Experimental: Tosyl activated beads (Invitrogen, Cat#14013) at 500×10⁶/ml were coated with anti-CD3 mAb and Fc fusion proteins in a two-step protocol: with 50 ug/ml human anti-CD3 clone UTCH1 (R&D systems, Cat# mab 100) in sodium phosphate buffer at 37° C. overnight, followed with 0-320 ug/ml of VSTM5-ECD-Ig fusion protein (human ECD of VSTM5 fused with Fc of human IgG1) for another overnight incubation at 37° C. In the second step, control human Fc was added together with Fc fusion protein so that the total amount of protein is 160 ug/ml (Bioxcell, Cat# BE0096) for the 0, 20, 40, 80 and 160 ug/ml coating condition (except for the 320 ug/ml coating condition).
The amount of anti-CD3 antibody bound to the beads was analyzed using goat anti-mouse 647 (Jackson ImmunoResearch, Cat#115-606-146).

| Binder | Kd (VSTM5 monomer [1]) [nM] | ratio of 293-muVSTM5 cell binding / 293-MT control cell binding (FACS) at 22 nM mAb [2] [ratio] | Kd (VSTM5 monomer [3]) [nM] | ratio of 293-huVSTM5 cell binding / 293-MT control cell binding (FACS) at 22 nM mAb [4] [ratio] | ratio of 293-muVSTM5 cell binding / 293-MT control cell binding (FACS) at 22 nM mAb [5] [ratio] | binding result [6] | ratio of 293-huVSTM5 cell binding / 293-MT control cell binding (FACS) at 22 nM mAb [7] [ratio] | EC50 (read off the curve) [8] [nM] | binding result [9] | EC50 (read off the curve) [10] [nM] | binding result [11] |
| --- | --- | --- | --- | --- | --- | --- | --- | --- | --- | --- | --- |
| B1 | 657 | 50 to 400 | 657 | 50 to 400 |  |  |  |  |  |  |  |
| B2 |  |  |  |  | 850 to 2000 | binds | 850 to 2000 | ~2 | binds | ~3 | binds |
